Paper PMC7785020, “A unique hormonal recognition feature of the human glucagon-like peptide-2 receptor” (Cell Research, 2020)

Key:
[1] = target: GLP-2R D244^ECL1A (human) (UniProt O95838); test: radioligand binding; competition on transiently transfected COS-7 cells: unlabeled teduglutide 0.1 nM to 1 μM against 10–15 pM [125I]GLP-2(1–33, M10Y); 4 h, 4 °C; 50 mM HEPES pH 7.4, 1 mM CaCl2, 5 mM MgCl2, 0.5% BSA; three-parameter logistic fit
GLP-2R ECL1 (GLP-1R) = GLP-2R ECL1 (GLP-1R) (UniProt O95838); test: as above
[2] = target: GLP-2R H268^3.37A (human) (UniProt O95838); test: as above
[3] = target: GLP-2R K414^7.35 A (human) (UniProt O95838); test: as above
[4] = target: GLP-2R N247^ECL1A (human) (UniProt O95838); test: as above
[5] = target: GLP-2R R242^ECL1A (human) (UniProt O95838); test: as above
[6] = target: GLP-2R W249^ECL1A (human) (UniProt O95838); test: as above
GLP-2R R344^5.40A = target: T1, GLP-2R R344^5.40A (Homo sapiens, UniProt O95838, R344A); test: cAMP accumulation, R344^5.40A; format: cell-based; conditions: Table S3, R344A; HEK 293T, 30 min, RT; mean ± SEM, n ≥ 3 in duplicate; read-out: cAMP Emax (% WT)
T1 sequence (O95838 1-553 R344A): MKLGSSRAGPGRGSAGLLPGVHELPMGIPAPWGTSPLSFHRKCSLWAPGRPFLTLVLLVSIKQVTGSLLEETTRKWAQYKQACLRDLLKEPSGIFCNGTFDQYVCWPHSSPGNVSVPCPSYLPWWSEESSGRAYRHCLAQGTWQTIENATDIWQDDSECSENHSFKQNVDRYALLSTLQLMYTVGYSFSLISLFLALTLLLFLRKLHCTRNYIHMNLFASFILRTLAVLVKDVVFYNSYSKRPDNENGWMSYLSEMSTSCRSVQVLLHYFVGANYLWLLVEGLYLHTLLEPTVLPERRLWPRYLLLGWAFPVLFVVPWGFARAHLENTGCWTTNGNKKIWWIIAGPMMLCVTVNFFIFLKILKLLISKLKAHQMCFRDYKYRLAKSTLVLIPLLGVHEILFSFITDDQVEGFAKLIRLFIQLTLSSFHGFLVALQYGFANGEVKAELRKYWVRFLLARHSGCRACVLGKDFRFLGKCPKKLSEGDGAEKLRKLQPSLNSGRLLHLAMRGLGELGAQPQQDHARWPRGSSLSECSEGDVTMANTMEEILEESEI
Procedure: HEK 293T cells were cultured in Dulbecco’s Modified Eagle’s Medium (DMEM) (Gibco, Waltham, USA) supplemented with 10% (v/v) fetal bovine serum (FBS) (Gibco) and 1% (v/v) sodium pyruvate (Gibco) at 37 °C, 5% CO2 in a humidified incubator. They were seeded onto 6-well cell culture plates and transiently transfected with different GLP-2R constructs using Lipofectamine 2000 transfection reagent (Invitrogen, Carlsbad, CA, USA). After 24 h, the transfected cells were seeded onto 384-well microtiter plates (3000 cells per well) in HBSS supplemented with 5 mM HEPES, 0.1% (w/v) bovine serum albumin (BSA) and 0.5 mM 3-isobutyl-1- methylxanthine, and stimulated with increasing concentrations of GLP-2 for 30 min at RT. Eu and Ulight were diluted by cAMP detection buffer and added to the plates separately to terminate the reaction. Plates were incubated at RT for 60 min before measuring the fluorescence intensity at 620 nm and […] by an EnVision multilabel plate reader (PerkinElmer, Boston, USA).

% Binding of WT [1]	% Binding of WT (GLP-2R ECL1 (GLP-1R))	% Binding of WT [2]	% Binding of WT [3]	% Binding of WT [4]	% Binding of WT [5]	% Binding of WT [6]	Compound	Emax (GLP-2R R344^5.40A)
77.5%	1.2%	0.7%	13.9%	135%	5.1%	2.9%	[^125I]GLP-2(1–33, M10Y) (peptide)	–
–	–	–	–	–	–	–	CC[C@H](C)[C@H](NC(=O)[C@H](Cc1ccccc1)NC(=O)[C@H](CC(=O)O)NC(=O)[C@H](CCCNC(=N)N)NC(=O)[C@H](C)NC(=O)[C@H](C)NC(=O)[C@H](CC(C)C)NC(=O)[C@H](CC(N)=O)NC(=O)[C@H](CC(=O)O)NC(=O)[C@H](CC(C)C)NC(=O)[C@@H](NC(=O)[C@@H](NC(=O)[C@H](CC(N)=O)NC(=O)[C@H](CCSC)NC(=O)[C@H](CCC(=O)O)NC(=O)[C@H](CC(=O)O)NC(=O)[C@H](CO)NC(=O)[C@H](Cc1ccccc1)NC(=O)[C@H](CO)NC(=O)CNC(=O)[C@H](CC(=O)O)NC(=O)[C@H](C)NC(=O)[C@@H](N)Cc1c[nH]cn1)[C@@H](C)O)[C@@H](C)CC)C(=O)N[C@@H](CC(N)=O)C(=O)N[C@@H](Cc1c[nH]c2ccccc12)C(=O)N[C@@H](CC(C)C)C(=O)N[C@H](C(=O)N[C@@H](CCC(N)=O)C(=O)N[C@H](C(=O)N[C@@H](CCCCN)C(=O)N[C@H](C(=O)N[C@H](C(=O)N[C@@H](CC(=O)O)C(=O)O)[C@@H](C)O)[C@@H](C)CC)[C@@H](C)O)[C@@H](C)CC [Human GLP-2 (1–33)]	109 ± 2.8%
